Measured values reported in article PMC5099578, “A structural and functional study on the 2-C-methyl-D-erythritol-4-phosphate cytidyltransferase (IspD) from Bacillus subtilis” (Scientific Reports, 2016).

Target: the molecule itself
Test: crystal structure; apo form I, space group P2_(1)2_(1)2_(1), crystallization condition I, hanging drop at 18 °C; two molecules in the asymmetric unit; 1.80 Å

B1: 2-C-methyl-D-erythritol-4-phosphate cytidyltransferase (IspD) from Bacillus subtilis (enzyme, Bacillus subtilis 168)
chain: MSYDVVIPAAGQGKRMKAGRNKLFIELKGDPVIIHTLRVFDSHRQCDKIILVINEQEREHFQQLLSDYPFQTSIELVAGGDERQHSVYKGLKAVKQEKIVLVHDGARPFIKHEQIDELIAEAEQTGAAILAVPVKDTIKRVQDLQVSETIERSSLWAVQTPQAFRLSLLMKAHAEAERKGFLGTDDASLVEQMEGGSVRVVEGSYTNIKLTTPDDLTSAEAIMESESGNKHV
notes: IspD of Bacillus subtilis 168 (DSM 23778); the IspD gene amplified from genomic DNA as a 699 bp product; 232 residues built in apo form I (residues numbered up to 232); 699 bp fits 232 codons and a stop codon, so probably the whole gene; Cloned BamHI/XhoI in pGEX-6P-1; GST removed by PreScission protease, so a few vector residues may be left at the N-terminus (surmised); also called BsIspD; …
  stoichiometry N: 2
